Like-named read-outs stand apart in the source and are kept apart here.
Assays:
Ty = molecular target: T1, Ty (Streptomyces antibioticus, UniProt P07524); assay: Dye emission switching ratio (Fred/Foxy) of N-terminally labelled Ty; details: dye attached to Ty; excitation at 280 nm; Trp line = native protein
T1 construct: The S.a; Ty is a monomeric protein with a molecular mass of ˜30 kDa
Description: (§1) To illustrate the present invention two type-3 copper proteins have been selected: Hc from the arthropod Carcinus aestuarii (Mediterranean crab) and Ty from the soil bacterium Streptomyces antibioticus. The C.a. Hc consists of a mixture of hexamers and dodecamers, which are self-assembled from three different types of subunits. The S.a. Ty is a monomeric protein with a molecular mass of ˜30 kDa. The structure of Ty from S. castaneoglobisporus has recently been solved. S.a. Ty has 91% sequence similarity (82% indentity) with S.c. Ty and can be easily modelled on the S.c. structure. […] Dissociation can be achieved by incubating the Hc at high pH and in the absence of divalent metal ions. Both conditions were met in our experiments and we will assume, therefore, that the Hc used in this study was present in the form of monomers. The data on O2 binding (vide infra) confirms this assumption.
Both Hc and Ty were labelled at their N-terminus with each of the five dyes. […] The peak around 330 nm is a second-order artefact. In a solution containing dye and protein separately (not linked) this peak (280 nm) was missing. […]
In all cases, an increase in label emission was observed after deoxygenating the sample (FIG. 4A). […] The Cy3 fluorescence is specific for the labelled protein, while the Trp emission derives mainly (>95%) from unlabelled Hc. […]

[1] = literature [14]; read-out: literature dissociation constant (O2); cited from earlier work
[2] = literature [12], [13]; cited from earlier work
[3] = literature [15]; read-out: literature Kd (iodide); cited from earlier work
[4] = O2 binding curve of labelled Ty; [O2] calculated from Hc-Atto390 fluorescence in the same sample during deoxygenation; parameters: species or system Streptomyces antibioticus; details: label fluorescence vs [O2] determined from Hc-Atto390; read-out: Kd (O2 binding curve fitted to Hill equation)
Description: as §1, with “Both conditions were met in our experiments and we will assume, therefore, that the Hc used in this study was present in the form of monomers. The data on O2 binding (vide infra) confirms this assumption.” left out
The fact that the described method works for labels showing widely different emission wavelengths opens the possibility to observe two or more constructs in the same sample using a single excitation wavelength. […] The circles refer to the oxygen concentration (right scale) as calculated from the fluorescence of the Hc-Atto390. The left scale refers to the Ty-Atto655 fluorescence. […]
The [O2] at each time-point in the trace was determined using the response of Hc-Atto390 fluorescence with Eq. 1 and the oxygen dissociation constant and the Hill coefficient determined in an independent O2 titration (FIG. 6A). The Ty-Atto655 fluorescence was then plotted as a function of the determined [O2] at each time-point (FIG. 6B). […]

[5] = Titration of a mixture of Hc-Alexa350 and Ty-Cy5 with iodide in air-saturated solution, emission upon excitation at 280 nm; type: binding; details: fitted to Eq. 1, read-out: apparent Kd (iodide)
Experimental: The specificity of the method is illustrated by the data presented in FIG. 7, which show a titration of a mixture of Hc-Alexa350 and Ty-Cy5 with iodide in an air-saturated solution. […] Hc. […] The small fluorescence decrease of the latter can be ascribed to the aspecific collisional quenching of the label and/or the Trp fluorescence by iodide. […] The difference between the experimental Kd and the literature value of 3.0±0.3 mM [15] may be related to its dependence on the [O2] in the sample, which may have varied between the two experiments.

T1 sequence (P07524 whole entry): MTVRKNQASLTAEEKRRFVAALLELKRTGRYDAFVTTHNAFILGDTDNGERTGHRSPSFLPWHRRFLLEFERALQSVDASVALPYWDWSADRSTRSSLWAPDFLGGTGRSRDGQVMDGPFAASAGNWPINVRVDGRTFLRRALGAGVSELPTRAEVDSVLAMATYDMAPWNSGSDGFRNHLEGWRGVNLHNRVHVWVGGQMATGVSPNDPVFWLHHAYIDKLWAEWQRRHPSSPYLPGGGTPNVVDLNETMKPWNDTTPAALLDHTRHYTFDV

## Cc1cc(=O)oc2cc3c(cc12)C(C)CC(C)(C)N3CCCC(=O)O (stereo not shown) [Atto390]
Ty
  SR Tyr (switching ratio Fred/Foxy): 2.2

## CCN1C(=CC=CC2=[N+](CCCCCC(=O)O)c3ccc(S(=O)(=O)O)cc3C2(C)C)C(C)(C)c2cc(S(=O)(=O)[O-])ccc21 [Cy3]
Ty
  SR Tyr (switching ratio Fred/Foxy): 2.8

B1: Ty: Ty from the soil bacterium Streptomyces antibioticus, monomeric type-3 copper protein of ~30 kDa (protein, UniProt P07524 2-273, looked up)
Tyrosinase: TVRKNQASLTAEEKRRFVAALLELKRTGRYDAFVTTHNAFILGDTDNGERTGHRSPSFLPWHRRFLLEFERALQSVDASVALPYWDWSADRSTRSSLWAPDFLGGTGRSRDGQVMDGPFAASAGNWPINVRVDGRTFLRRALGAGVSELPTRAEVDSVLAMATYDMAPWNSGSDGFRNHLEGWRGVNLHNRVHVWVGGQMATGVSPNDPVFWLHHAYIDKLWAEWQRRHPSSPYLPGGGTPNVVDLNETMKPWNDTTPAALLDHTRHYTFDV
[1]
  Kd: 16 µM
[2]
  O2 dissociation rate: ~300 s⁻¹
[3]
  Kd: 3000 ± 300 µM

B2: Ty-Cy5: Streptomyces antibioticus tyrosinase labelled at its N-terminus with the dye Cy5 (conjugate, UniProt P07524 2-273, looked up)
Tyrosinase: B1 Tyrosinase
modifications: N-terminal Cy5 label
[4]
  Kd: 15 µM
[5]
  Kd: 4400 ± 300 µM
